Laboratory results as given in patent publication US20200283521A1 (GRANULAR THERAPEUTICS, published 2020).
Positions count from the first letter of the chain named.

Key:
[1] = target: T1, hEpCAM-Fc (human, UniProt P16422); assay: direct ELISA on coated protein, IgG1
T1 construct: Fc fusion; member of the panel m9
T1 sequence (looked up): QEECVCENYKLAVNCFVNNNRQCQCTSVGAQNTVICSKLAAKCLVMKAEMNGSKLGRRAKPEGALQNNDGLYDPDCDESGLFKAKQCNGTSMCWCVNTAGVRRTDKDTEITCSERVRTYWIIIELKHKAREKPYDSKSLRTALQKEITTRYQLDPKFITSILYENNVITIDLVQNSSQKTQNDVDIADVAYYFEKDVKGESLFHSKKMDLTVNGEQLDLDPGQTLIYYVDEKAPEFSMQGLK

[2] = target: T2, hDR3-Fc (human, UniProt Q93038); assay: direct ELISA on coated protein, IgG1
T2 construct: Fc fusion; member of the panel m9
T2 sequence (looked up): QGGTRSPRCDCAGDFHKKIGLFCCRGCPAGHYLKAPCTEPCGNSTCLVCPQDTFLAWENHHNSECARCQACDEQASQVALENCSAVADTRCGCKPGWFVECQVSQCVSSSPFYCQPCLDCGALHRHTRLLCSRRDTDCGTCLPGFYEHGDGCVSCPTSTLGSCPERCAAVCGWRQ

[3] = target: T3, hVCAM-Fc; assay: direct ELISA on coated protein, IgG1
T3 construct: member of the panel m9
T3 chain: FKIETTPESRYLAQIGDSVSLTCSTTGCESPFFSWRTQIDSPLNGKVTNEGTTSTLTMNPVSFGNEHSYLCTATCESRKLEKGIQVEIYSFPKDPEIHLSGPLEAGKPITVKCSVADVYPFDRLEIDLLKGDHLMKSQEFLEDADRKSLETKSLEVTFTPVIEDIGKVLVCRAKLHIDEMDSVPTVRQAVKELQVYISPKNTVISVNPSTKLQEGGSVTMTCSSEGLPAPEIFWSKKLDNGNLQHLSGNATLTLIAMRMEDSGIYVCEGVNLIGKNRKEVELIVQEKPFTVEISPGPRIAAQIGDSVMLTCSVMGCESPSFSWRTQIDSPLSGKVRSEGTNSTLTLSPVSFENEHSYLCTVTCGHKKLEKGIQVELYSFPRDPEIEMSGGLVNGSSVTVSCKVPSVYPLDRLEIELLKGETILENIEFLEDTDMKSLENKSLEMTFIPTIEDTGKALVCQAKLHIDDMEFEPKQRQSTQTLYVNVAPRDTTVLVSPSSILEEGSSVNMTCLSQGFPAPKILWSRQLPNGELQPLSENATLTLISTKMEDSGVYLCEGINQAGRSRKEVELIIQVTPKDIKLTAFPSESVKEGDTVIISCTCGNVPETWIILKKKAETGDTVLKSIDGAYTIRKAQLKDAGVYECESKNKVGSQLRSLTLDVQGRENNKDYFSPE

[4] = target: T4, hICAM-1-Fc (human, UniProt P05362); assay: direct ELISA on coated protein, IgG1
T4 construct: Fc fusion; member of the panel m9
T4 sequence (P05362 28-480 limits assumed): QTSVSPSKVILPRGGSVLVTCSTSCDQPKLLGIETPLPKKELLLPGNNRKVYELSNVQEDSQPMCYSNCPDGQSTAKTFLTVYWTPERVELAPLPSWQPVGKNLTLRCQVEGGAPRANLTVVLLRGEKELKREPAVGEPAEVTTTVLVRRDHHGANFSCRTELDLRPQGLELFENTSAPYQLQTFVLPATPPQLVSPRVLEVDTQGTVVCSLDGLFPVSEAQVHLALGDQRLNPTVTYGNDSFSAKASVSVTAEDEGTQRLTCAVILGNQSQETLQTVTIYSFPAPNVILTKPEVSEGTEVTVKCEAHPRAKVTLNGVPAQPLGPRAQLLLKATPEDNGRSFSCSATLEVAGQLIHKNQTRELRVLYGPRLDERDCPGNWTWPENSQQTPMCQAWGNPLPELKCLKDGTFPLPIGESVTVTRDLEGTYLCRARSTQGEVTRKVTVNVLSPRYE

[5] = target: T5, PSAPL1 (human, UniProt Q6NUJ1); assay: cell array, transfected fixed HEK293 cells
T5 construct: expressed in transfected HEK293 cells
T5 sequence (looked up): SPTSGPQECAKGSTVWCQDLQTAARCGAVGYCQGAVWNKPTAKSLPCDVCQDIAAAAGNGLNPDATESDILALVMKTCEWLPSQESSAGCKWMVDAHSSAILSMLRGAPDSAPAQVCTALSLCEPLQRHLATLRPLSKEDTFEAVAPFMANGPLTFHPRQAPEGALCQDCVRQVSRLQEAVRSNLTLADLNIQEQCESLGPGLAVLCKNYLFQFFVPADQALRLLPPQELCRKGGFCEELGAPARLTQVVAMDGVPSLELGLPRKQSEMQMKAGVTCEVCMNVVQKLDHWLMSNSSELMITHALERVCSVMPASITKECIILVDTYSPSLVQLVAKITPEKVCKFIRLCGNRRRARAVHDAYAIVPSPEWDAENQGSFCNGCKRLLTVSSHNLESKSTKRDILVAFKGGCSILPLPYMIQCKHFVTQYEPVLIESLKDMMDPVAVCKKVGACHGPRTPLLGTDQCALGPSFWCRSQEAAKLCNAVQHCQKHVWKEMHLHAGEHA
Procedure: (§1) Transfection of all plasmids was confirmed by screening for the co-encoded marker ZS green (FIG. 13A).
(§2) Primary hits (duplicate spots) were identified by analysing fluorescence (AF647 and ZsGreenl) on ImageQuant. Vectors encoding all hits were sequenced to confirm their correct identities. […] Slides were analysed as above.

[6] = target: T6, KRT19 (human, UniProt P08727); assay: cell array, transfected fixed HEK293 cells
T6 construct: expressed in transfected HEK293 cells
T6 sequence (looked up): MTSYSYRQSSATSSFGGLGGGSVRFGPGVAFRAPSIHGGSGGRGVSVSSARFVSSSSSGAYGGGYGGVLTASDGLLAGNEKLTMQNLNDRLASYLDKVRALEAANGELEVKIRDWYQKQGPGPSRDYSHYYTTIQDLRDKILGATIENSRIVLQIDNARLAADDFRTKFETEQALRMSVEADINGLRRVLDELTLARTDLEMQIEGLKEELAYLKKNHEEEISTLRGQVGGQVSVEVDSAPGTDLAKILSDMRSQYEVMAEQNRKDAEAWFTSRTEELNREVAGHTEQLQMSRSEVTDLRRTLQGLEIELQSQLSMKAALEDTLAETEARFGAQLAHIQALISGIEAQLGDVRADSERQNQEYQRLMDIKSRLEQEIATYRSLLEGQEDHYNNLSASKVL
Procedure: as §1, §2

[7] = target: T7, MS4A1 (human, UniProt P11836); assay: cell array, transfected fixed HEK293 cells
T7 construct: expressed in transfected HEK293 cells; also called CD20
T7 sequence (looked up): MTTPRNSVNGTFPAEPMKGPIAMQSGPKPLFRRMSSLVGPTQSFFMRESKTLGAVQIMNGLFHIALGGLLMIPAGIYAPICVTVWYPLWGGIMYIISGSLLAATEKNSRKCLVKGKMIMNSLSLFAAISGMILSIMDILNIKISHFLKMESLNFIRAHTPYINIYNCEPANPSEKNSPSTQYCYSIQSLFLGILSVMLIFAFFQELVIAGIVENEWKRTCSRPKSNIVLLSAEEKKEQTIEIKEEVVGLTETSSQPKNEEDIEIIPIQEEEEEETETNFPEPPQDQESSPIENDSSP
Procedure: as §1, §2

[8] = target: T8, ZG16B (human, UniProt Q96DA0); assay: cell array, transfected fixed HEK293 cells
T8 construct: expressed in transfected HEK293 cells
T8 sequence (looked up): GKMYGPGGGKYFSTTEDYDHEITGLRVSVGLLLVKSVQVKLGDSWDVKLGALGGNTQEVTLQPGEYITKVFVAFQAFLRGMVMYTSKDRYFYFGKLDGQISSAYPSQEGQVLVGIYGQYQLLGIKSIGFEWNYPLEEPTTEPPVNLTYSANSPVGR
Procedure: as §1, §2

[9] = target: T9, EGFR (human, UniProt P00533); assay: cell array, transfected fixed HEK293 cells
T9 construct: expressed in transfected HEK293 cells
Procedure: as §1, §2

[10] = target: T10, COL23A1 (human, UniProt Q86Y22); assay: cell array, transfected fixed HEK293 cells
T10 construct: expressed in transfected HEK293 cells
T10 sequence (Q86Y22 whole entry): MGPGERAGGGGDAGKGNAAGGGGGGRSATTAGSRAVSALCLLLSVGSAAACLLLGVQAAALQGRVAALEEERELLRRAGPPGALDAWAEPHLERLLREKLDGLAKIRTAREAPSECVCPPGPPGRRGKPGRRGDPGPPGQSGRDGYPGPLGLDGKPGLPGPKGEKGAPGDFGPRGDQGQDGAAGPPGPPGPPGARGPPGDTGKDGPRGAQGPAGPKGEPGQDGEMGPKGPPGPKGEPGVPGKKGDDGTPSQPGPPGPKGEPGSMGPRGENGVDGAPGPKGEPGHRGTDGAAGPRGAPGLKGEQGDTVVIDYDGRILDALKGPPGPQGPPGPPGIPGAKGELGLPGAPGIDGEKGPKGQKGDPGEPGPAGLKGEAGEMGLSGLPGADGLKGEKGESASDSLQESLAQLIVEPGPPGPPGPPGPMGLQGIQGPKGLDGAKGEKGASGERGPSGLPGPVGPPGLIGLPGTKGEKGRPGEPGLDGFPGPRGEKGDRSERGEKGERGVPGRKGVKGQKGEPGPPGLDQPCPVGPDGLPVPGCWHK
Procedure: as §1, §2

Measured: binding result

B1: MH5.22 (antibody, IgG1, V domains shown)
VH: QVQLVQSGAEVKKPGASVKVSCKASGYTFTDFYMNWVRQAPGQGLEWMGRIYPASGNTYYAQKFQGRVTMTRDTSTSTVYMELSSLRSEDTAVYYCARGVWYYDYWGQGTLVTVSS
VL: DIQMTQSPSSLSASVGDRVTITCRASQGIRTNLAWFQQKPGKAPKSLIYAASSLQSGVPSRFSGSGSGTDFTLTISSLQPEDFATYYCQQYANYPRTFGGGTKVEIK
notes: IgG1; also called C-KIT-MH5.22
no binding (tested: 1 µg/ml): [1] | [2] | [3] | [4]

B2: MH1, human IgG1 (antibody, V domains shown)
VH: B1 VH with F32Y, A54G, W101Y
VL: B1 VL with A92N, N93S
notes: IgG1; also called IgG1-MH1
no binding (tested: 2 µg/ml): [5] | [6] | [7] | [8] | [9] | [10]
